Reference: FireProtDB
“And” between values parts separate entries of the source, which are not always exact repeats. Equal entries are not always repeated.

Conditions: whole UniProt chain shown
[1] = Armoracia rusticana, pH 7.4, 21 °C, GdnHCl, CD, Sodium phosphate 20 mM, CaCl2 1 mM, reversible: yes
[2] = Armoracia rusticana, pH 7.4, 21 °C, GdnHCl, Fluorescence, Sodium phosphate 20 mM, CaCl2 1 mM, reversible: yes
[3] = Bacillus amyloliquefaciens, pH 5.8, Thermal, DSC, acetate 10 mM, reversible: yes
[4] = Bacillus amyloliquefaciens, pH 6.2, Thermal, DSC, PIPES 0.01 M, NaCl 0.05 M, reversible: yes(54%)
[5] = Bacillus amyloliquefaciens, pH 6.3, 25 °C, GdnSCN, CD, Sodium acetate 50 mM, reversible: yes
[6] = Bacillus amyloliquefaciens, pH 6.3, 25 °C, Thermal, Fluorescence, MES 50 mM, KCl, reversible: yes
[7] = Bacillus amyloliquefaciens, pH 6.3, 25 °C, Urea, CD, MES 50 mM, reversible: yes
[8] = Bacillus amyloliquefaciens, pH 6.3, 25 °C, Urea, Fluorescence, MES 19.3 mM, reversible: yes
[9] = Bacillus amyloliquefaciens, pH 6.3, 25 °C, Urea, Fluorescence, MES 50 mM, reversible: yes
[10] = Bacillus amyloliquefaciens, pH 6.3, Thermal, DSC, MES 50 mM, reversible: yes
[11] = Bacillus amyloliquefaciens, pH 8, 25 °C, Urea, CD, Tris-HCl 25 mM

B1: wild type, Q7M1T4 (protein)
chain: ASQTITVGPWGGPGGNGWDDGSYTGIRQIELSYKEAIGSFSVIYDLNGEPFSGPKHTSKLPYKNVKIELRFPDEFLESVSGYTAPFSALATPTPVVRSLTFKTNKGRTFGPYGDEEGTYFNLPIENGLIVGFKGRTGDLLDAIGVHMAL
- Tm (Artocarpus integer, pH 7.4, Thermal, CD, phosphate buffered saline (PBS) 10 mM, NaCl 150 mM, reversible: no): 65.8 °C
- Tm (Artocarpus integer, pH 7.4, Thermal, Fluorescence, phosphate buffered saline (PBS) 10 mM, NaCl 150 mM, reversible: no): 63.9 °C

B2: Thioredoxin wild type, P80579 (protein)
chain: ATMTLTDANFQQAIQGDKPVLVDFWAAWCGPCRMMAPVLEEFAEAHADKVTVAKLNVDENPETTSQFGIMSIPTLILFKGGRPVKQLIGYQPKEQLEAQLADVLQ
- denaturant midpoint (higher = more stable) (Alicyclobacillus acidocaldarius subsp. acidocaldarius, pH 7, GdHCl, CD, Sodium phosphate 10 mM, reversible: yes): 2.9 M
- Tm (Alicyclobacillus acidocaldarius subsp. acidocaldarius, pH 7, Thermal, CD, Sodium phosphate 10 mM, reversible: yes): 84.5 °C and 88.2 °C
- denaturant midpoint (higher = more stable) (Alicyclobacillus acidocaldarius subsp. acidocaldarius, pH 7, Urea, CD, Sodium phosphate 10 mM, reversible: yes): 6.7 M

B3: Peroxidase C2 wild type, P17179 (protein)
chain: MHSSSSLIKLGFLLLLLNVSLSHAQLSPSFYDKTCPQVFDIATNTIKTALRSDPRIAASILRLHFHDCFVNGCDASILLDNTTSFRTEKDAFGNARSARGFDVIDTMKAAVEKACPKTVSCADLLAIAAQKSVVLAGGPSWKVPSGRRDSLRGFMDLANDNLPGPSSTLQVLKDKFRNVGLDRPSDLVALSGGHTFGKNQCQFIMDRLYNFSNSGKPDPTLDKSYLSTLRKQCPRNGNLSVLVDFDLRTPTIFDNKYYVNLKENKGLIQSDQELFSSPDASDTIPLVRAYADGQGKFFDAFVEAMIRMGNLSPSTGKQGEIRLNCRVVNSKPKIMDVVDTNDFASSI
- Tm (Armoracia rusticana, pH 7, Thermal, Fluorescence, Unknown, reversible: yes): 74 °C
- denaturant m value [1]: 1.8 kcal/mol/M
- unfolding free energy [1]: 1.82 kcal/mol
- denaturant m value [2]: 0.3 kcal/mol/M
- unfolding free energy [2]: 2.2 kcal/mol

B4: Ribonuclease wild type, P00648 (protein)
chain: MMKMEGIALKKRLSWISVCLLVLVSAAGMLFSTAAKTETSSHKAHTEAQVINTFDGVADYLQTYHKLPDNYITKSEAQALGWVASKGNLADVAPGKSIGGDIFSNREGKLPGKSGRTWREADINYTSGFRNSDRILYSSDWLIYKTTDHYQTFTKIR
- Tm [3]: 54.3 °C
- heat capacity change of unfolding [3]: 1.37 kcal/mol/K
- unfolding enthalpy (calorimetric) [3]: 126 kcal/mol
- unfolding enthalpy (van 't Hoff) [3]: 124 kcal/mol
- unfolding free energy (Bacillus amyloliquefaciens, pH 6, 25 °C, Thermal, CD, MES 50 mM, reversible: yes): 10 kcal/mol
- Tm [4]: 54.8 °C
- unfolding enthalpy (calorimetric) [4]: 128 kcal/mol
- denaturant m value [5]: 14.3 kcal/mol/M
- denaturant midpoint (higher = more stable) [5]: 0.77 M
- unfolding free energy [5]: 11 kcal/mol
- unfolding free energy (Bacillus amyloliquefaciens, pH 6.3, 25 °C, Thermal, DSC, MES 50 mM, reversible: yes): 8.52 kcal/mol
- heat capacity change of unfolding [6]: 1.88 kcal/mol/K
- unfolding enthalpy (van 't Hoff) [6]: 84.5 kcal/mol
- unfolding free energy [6]: 10.2 kcal/mol
- unfolding free energy (Bacillus amyloliquefaciens, pH 6.3, 25 °C, Thermal, Fluorescence, MES 50 mM): 10.2 kcal/mol
- denaturant m value [7]: 2.02 kcal/mol/M
- denaturant midpoint (higher = more stable) [7]: 4.53 M
- unfolding free energy [7]: 9.18 kcal/mol
- denaturant midpoint (higher = more stable) [8]: 2.27 M
- unfolding free energy [8]: 10.5 kcal/mol
- denaturant m value [9]: 1.92 kcal/mol/M
- denaturant midpoint (higher = more stable) [9]: 4.58 M
- unfolding free energy [9]: 8.79 kcal/mol
- unfolding free energy (Bacillus amyloliquefaciens, pH 6.3, 25 °C, Urea, Fluorescence, MES 1 M): 8.9 kcal/mol
- Tm [10]: 51.5 °C
- unfolding enthalpy (calorimetric) [10]: 127 kcal/mol
- unfolding enthalpy (van 't Hoff) [10]: 126 kcal/mol
- denaturant m value [11]: 1.84 kcal/mol/M
- unfolding free energy [11]: 7.58 kcal/mol
